Laboratory results from US20210388087A1 (Chugai, published 2021).

molecular target: T1, Human CD137 ECD (human); assay: Biacore SPR, vs parent H183/L072
T1 construct: entry includes C-terminal His-tag and biotin acceptor peptide; also called human CD137 extracellular domain; 4-1BB
T1 sequence (chain, as listed by the source limits assumed): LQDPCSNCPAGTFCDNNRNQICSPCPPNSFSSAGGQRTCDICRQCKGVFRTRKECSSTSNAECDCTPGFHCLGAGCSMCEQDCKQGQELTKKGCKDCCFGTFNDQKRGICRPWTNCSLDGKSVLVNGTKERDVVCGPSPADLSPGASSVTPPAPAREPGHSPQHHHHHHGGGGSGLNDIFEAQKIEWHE

| Binder | fold change of affinity |
| --- | --- |
| H183/L072 VL A89R (antibody, name in Kabat numbering, V domains shown, Dual-Ig) VH: QVQLVESGGGLVQPGRSLRLSCAASGFTFSNAWMHWVRQAPGKGLEWVAQIKDKGNAYAAYYAPSVKGRFTISRDDSKNSIYLQMNSLKTEDTAVYYCHYVHYASASTVLPAFGVDAWGQGTTVTVSS VL: DIVMTQSPLSLPVTPGEPASISCQASQELVHMNRNTYLHWYQQKPGQAPRLLIYKVSNRFPGVPDRFSGSGSGTDFTLKISRVEAEDVGVYYCRQGTSVPFTFGQGTKLEIK | 0 fold |
| H183/L072 VL A89W (antibody, name in Kabat numbering, V domains shown, Dual-Ig) VH: QVQLVESGGGLVQPGRSLRLSCAASGFTFSNAWMHWVRQAPGKGLEWVAQIKDKGNAYAAYYAPSVKGRFTISRDDSKNSIYLQMNSLKTEDTAVYYCHYVHYASASTVLPAFGVDAWGQGTTVTVSS VL: DIVMTQSPLSLPVTPGEPASISCQASQELVHMNRNTYLHWYQQKPGQAPRLLIYKVSNRFPGVPDRFSGSGSGTDFTLKISRVEAEDVGVYYCWQGTSVPFTFGQGTKLEIK | 0 fold |
| H183/L072 VL E27aD (antibody, name in Kabat numbering, V domains shown, Dual-Ig) VH: QVQLVESGGGLVQPGRSLRLSCAASGFTFSNAWMHWVRQAPGKGLEWVAQIKDKGNAYAAYYAPSVKGRFTISRDDSKNSIYLQMNSLKTEDTAVYYCHYVHYASASTVLPAFGVDAWGQGTTVTVSS VL: DIVMTQSPLSLPVTPGEPASISCQASQDLVHMNRNTYLHWYQQKPGQAPRLLIYKVSNRFPGVPDRFSGSGSGTDFTLKISRVEAEDVGVYYCAQGTSVPFTFGQGTKLEIK | 1.1 fold |
| H183/L072 VL A89T (antibody, name in Kabat numbering, V domains shown, Dual-Ig) VH: QVQLVESGGGLVQPGRSLRLSCAASGFTFSNAWMHWVRQAPGKGLEWVAQIKDKGNAYAAYYAPSVKGRFTISRDDSKNSIYLQMNSLKTEDTAVYYCHYVHYASASTVLPAFGVDAWGQGTTVTVSS VL: DIVMTQSPLSLPVTPGEPASISCQASQELVHMNRNTYLHWYQQKPGQAPRLLIYKVSNRFPGVPDRFSGSGSGTDFTLKISRVEAEDVGVYYCTQGTSVPFTFGQGTKLEIK | 0 fold |
| H183/L072 VL E27aF (antibody, name in Kabat numbering, V domains shown, Dual-Ig) VH: QVQLVESGGGLVQPGRSLRLSCAASGFTFSNAWMHWVRQAPGKGLEWVAQIKDKGNAYAAYYAPSVKGRFTISRDDSKNSIYLQMNSLKTEDTAVYYCHYVHYASASTVLPAFGVDAWGQGTTVTVSS VL: DIVMTQSPLSLPVTPGEPASISCQASQFLVHMNRNTYLHWYQQKPGQAPRLLIYKVSNRFPGVPDRFSGSGSGTDFTLKISRVEAEDVGVYYCAQGTSVPFTFGQGTKLEIK | 1.1 fold |
| H183/L072 VL A89S (antibody, name in Kabat numbering, V domains shown, Dual-Ig) VH: QVQLVESGGGLVQPGRSLRLSCAASGFTFSNAWMHWVRQAPGKGLEWVAQIKDKGNAYAAYYAPSVKGRFTISRDDSKNSIYLQMNSLKTEDTAVYYCHYVHYASASTVLPAFGVDAWGQGTTVTVSS VL: DIVMTQSPLSLPVTPGEPASISCQASQELVHMNRNTYLHWYQQKPGQAPRLLIYKVSNRFPGVPDRFSGSGSGTDFTLKISRVEAEDVGVYYCSQGTSVPFTFGQGTKLEIK | 0 fold |
| H183/L072 VL A89V (antibody, name in Kabat numbering, V domains shown, Dual-Ig) VH: QVQLVESGGGLVQPGRSLRLSCAASGFTFSNAWMHWVRQAPGKGLEWVAQIKDKGNAYAAYYAPSVKGRFTISRDDSKNSIYLQMNSLKTEDTAVYYCHYVHYASASTVLPAFGVDAWGQGTTVTVSS VL: DIVMTQSPLSLPVTPGEPASISCQASQELVHMNRNTYLHWYQQKPGQAPRLLIYKVSNRFPGVPDRFSGSGSGTDFTLKISRVEAEDVGVYYCVQGTSVPFTFGQGTKLEIK | 0 fold |
| H183/L072 VL E27aA (antibody, name in Kabat numbering, V domains shown, Dual-Ig) VH: QVQLVESGGGLVQPGRSLRLSCAASGFTFSNAWMHWVRQAPGKGLEWVAQIKDKGNAYAAYYAPSVKGRFTISRDDSKNSIYLQMNSLKTEDTAVYYCHYVHYASASTVLPAFGVDAWGQGTTVTVSS VL: DIVMTQSPLSLPVTPGEPASISCQASQALVHMNRNTYLHWYQQKPGQAPRLLIYKVSNRFPGVPDRFSGSGSGTDFTLKISRVEAEDVGVYYCAQGTSVPFTFGQGTKLEIK | 0.9 fold |
